Consider eight molecules from US20200347131A1 (SICHUAN KELUN BIOTECH BIOPHARMACEUTICAL, published 2020).

Assay [1] concerns the target T1, human LAG-3 (His tag) (human, UniProt P18627 23-450, limits assumed).
T1 construct: also called LAG-3-His antigen; not shown: His tag
T1 sequence (looked up): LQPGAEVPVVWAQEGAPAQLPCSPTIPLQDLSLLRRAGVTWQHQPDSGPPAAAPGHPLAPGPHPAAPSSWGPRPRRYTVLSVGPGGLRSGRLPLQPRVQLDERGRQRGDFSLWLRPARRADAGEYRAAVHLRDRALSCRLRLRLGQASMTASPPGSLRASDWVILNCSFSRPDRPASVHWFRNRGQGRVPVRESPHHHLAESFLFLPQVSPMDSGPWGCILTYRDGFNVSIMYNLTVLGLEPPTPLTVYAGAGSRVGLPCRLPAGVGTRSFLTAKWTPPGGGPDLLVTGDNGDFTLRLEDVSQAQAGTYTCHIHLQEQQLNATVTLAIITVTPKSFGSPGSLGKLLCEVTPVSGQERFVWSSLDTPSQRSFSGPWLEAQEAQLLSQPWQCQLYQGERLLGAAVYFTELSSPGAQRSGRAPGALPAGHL
Nature of the assay: BLI (ForteBio Octet), LAG-3 His on Ni-NTA sensor. As for the experimental part: (§1) The binding affinity constant of the purified murine monoclonal antibody #27 to the antigen was determined by Bio-Layer Interferometry (BLI) using the instrument of a PALL company's ForteBio Octet RED & QK system.

For assay [2], the target named is T1, human LAG-3 (His tag). Nature of the assay: BLI (ForteBio Octet), LAG-3 His on Ni-NTA sensor, antibody 3.125-100 nM. On the procedure:
as §1
(In general: BLI is a label-free optical method that tracks binding on a fibre tip over time.)

For assay [3], the target named is T1, human LAG-3 (His tag). Nature of the assay: FACS competition, antibody blocks the binding of LAG-3-His (12 ug/mL) to MHC II positive A431 cells. As for the experimental part: Human epidermal cancer cell line A431 (purchased from Nanjing Cobioer Company) is an MHC II positive expression cell line. […] The method was also used to evaluate the biological activity of relevant antibodies.
A431 cells were trypsinized, resuspended in PBS, and the cell density was adjusted to 5×10⁶ cells/mL, 100 μL/well. […] The cells were washed twice with pre-cooled PBS, resuspended in 100 µL of solution containing […] of PE anti-His, and incubated at 4° C. for 0.5 hours, washed twice with pre-cooled PBS, and resuspended in PBS.

The target of assay [4] is T2, human LAG-3 (Uniport entry No. P18627) (human, UniProt P18627 23-450, limits assumed).
T2 sequence (looked up): T1 sequence (looked up)
Nature of the assay: indirect ELISA on plate-coated human LAG-3 (0.1 ug/ml), HRP goat anti-mouse IgG detection. (ELISA stands for enzyme-linked immunosorbent assay.)

In assay [5] the target is T3, cynomolgus monkey LAG-3 on CHO cells (CHO-cynoLAG-3) (cynomolgus monkey).
T3 construct: whole, on cells; Cells prepared by Kelun Biotech Co., Ltd
Nature of the assay: flow cytometry, FITC-labelled antibody on CHO-cynoLAG-3 cells. As for the experimental part:
(§2) 5×10⁵ cells per tube of CHO-cynoLAG-3 and CHO-hLAG-3 cells were taken respectively. […] The dilutions were mixed with cells at a ratio of 1:1, and incubated for 30 minutes at room temperature, followed by washing 3 times with pre-cooled PBS and detection by flow cytometry (Benckman, model CytoFlex). The signal values were input into GraphPad Prism to calculate the EC₅₀ values.

In assay [6] the target is T4, LAG-3-Tag1 of the LAG-3/MHC II kit (CISBIO, ADK000CLAPEF) (human, UniProt P18627 23-450).
T4 construct: Kit reagent; The construct is not described
Nature of the assay: HTRF competition, antibody blocks the binding of LAG-3-Tag1 to MHC II-Tag2 (CISBIO kit). As for the experimental part: Anti-Tag1-Eu³⁺ is a donor of HTRF (Homogeneous Time-Resolved Fluorescence), and anti-Tag2-XL665 acts as a receptor for HTRF. When the two molecules are close to each other, the fluorescence energy is transferred from the donor to the acceptor, accompanied by appearance of a fluorescent signal at 650 nm.
After mixing the anti-Tag1-Eu³⁺ and anti-Tag2-XL665 in equal volumes, each well was added with 10 μl, mixed well, sealed with a film, and incubated for 1 hour at room temperature.

The target of assay [7] is T5, human LAG-3 on CHO cells (CHO-hLAG-3) (human, UniProt P18627 23-525).
T5 construct: whole, on cells; Cells prepared by Kelun Biotech Co., Ltd; also called CHO cells expressing human LAG-3
T5 sequence (looked up): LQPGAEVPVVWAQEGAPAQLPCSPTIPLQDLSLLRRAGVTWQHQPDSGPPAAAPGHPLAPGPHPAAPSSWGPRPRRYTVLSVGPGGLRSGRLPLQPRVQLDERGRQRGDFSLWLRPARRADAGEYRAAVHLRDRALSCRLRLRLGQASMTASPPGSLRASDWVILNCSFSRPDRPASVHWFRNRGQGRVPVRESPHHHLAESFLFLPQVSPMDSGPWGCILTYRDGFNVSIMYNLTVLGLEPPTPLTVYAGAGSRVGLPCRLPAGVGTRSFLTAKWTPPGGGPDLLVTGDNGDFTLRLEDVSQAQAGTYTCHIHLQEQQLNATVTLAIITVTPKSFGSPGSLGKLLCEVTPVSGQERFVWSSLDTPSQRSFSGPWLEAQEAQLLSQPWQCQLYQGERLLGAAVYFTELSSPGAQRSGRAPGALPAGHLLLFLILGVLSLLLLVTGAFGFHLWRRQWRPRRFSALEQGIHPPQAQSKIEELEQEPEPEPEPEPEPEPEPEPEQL
Nature of the assay: flow cytometry, FITC-labelled antibody on CHO-hLAG-3 cells. On the procedure:
as §2
Background: A flow cytometer gives signals particle by particle.

A word on the Kd: it is the constant that tells how readily two partners part at equilibrium. What is called koff is the rate constant with which the complex falls apart. In general, kon refers to the second-order rate constant of association. Usually IC50 stands for the concentration needed to halve the response being measured. As usually defined, the EC50 (read off the curve) is the concentration needed to bring the measured effect to its halfway point. One may read the EC50 as the concentration giving half of the maximal effect.

Positions count from the first letter of the chain named.

B1: murine monoclonal antibody #27 (antibody, IgG4, V domains shown)
VH: DVHLQESGPDLVKPSQSLSLTCTVTGYSITSFYSWHWIRQFPGNKLEWMGCIQYSGDTDSNPSLKSRISITRDTSENQLFLHLNSVTTEDTATYYCARSPYDSDPYYVMDYWGQGTSVTVSS
VL: DIVMSQSPSSLAVSVGEKITMTCKSSQSLLYSGNQKNYLAWYQQKPGQSPTLLIYWASTRDSGVPDRLTGSGSGTDFTLTISSVKAEDLAVYYCQQYYAYPYTFGGGTKLETK
notes: Purified from hybridoma supernatant; also called murine antibody #27; monoclonal antibody produced by hybridoma cell line #27 (CCTCC NO.C2017183)
In the assay with human LAG-3 (His tag) [1], B1 returned a Kd of 319 pM, a koff of 3.86e-05 s⁻¹ and a kon of 121000 M⁻¹ s⁻¹. In the assay with human LAG-3 (His tag) [2], this molecule yielded a Kd of 319 pM, a dissociation rate constant (koff) of 3.86e-05 s⁻¹ and a kon of 121000 M⁻¹ s⁻¹. In the assay with human LAG-3 (His tag) [3], the concentration for half-maximal inhibition (IC50) worked out at 10400 pM and the Maximum inhibition % was 84.2%. The “EC50 (read off the curve)” value in assay [4] is ~0.05 µg/mL.

B2: human-mouse chimeric antibody AB12T2 (antibody, human IgG4 S228P, kappa, V domains shown)
VH: B1 VH
VL: DIVMSQSPSSLAVSVGEKITMTCKSSQSLLYSGNQKNYLAWYQQKPGQSPTLLIYWASTRDSGVPDRLTGSGSGTDFTLTISSVKAEDLAVYYCQQYYAYPYTFGGGTKLETKR
In the assay with human LAG-3 (His tag) [1], B2 yielded a dissociation constant Kd of 574 pM, a koff of 4.97e-05 s⁻¹ and a kon of 100000 M⁻¹ s⁻¹.

B3: reference antibody AB12T1 (BMS 986016) (antibody, human IgG4 S228P, kappa, V domains shown)
VH: QVQLQQWGAGLLKPSETLSLTCAVYGGSFSDYYWNWIRQPPGKGLEWIGEINHRGSTNSNPSLKSRVTLSLDTSKNQFSLKLRSVTAADTAVYYCAFGYSDYEYNWFDPWGQGTLVTVSS
VL: EIVLTQSPATLSLSPGERATLSCRASQSISSYLAWYQQKPGQAPRLLIYDASNRATGIPARFSGSGSGTDFTLTISSLEPEDFAVYYCQQRSNWPLTFGQGTNLEIKR
notes: also called positive control antibody AB; FITC-AB12T1
In assay [5], B3 yielded an EC50 of 793000 pM.

B4: humanized antibody AB12T3 (antibody, human IgG4, kappa, V domains shown)
VH: DVQLQESGPGLVKPSQTLSLTCTVTGYSITSFYSWHWIRQHPGKGLEWMGCIQYSGDTDSNPSLKSRITITRDTSENQLSLKLSSVTAADTAVYYCARSPYDSDPYYVMDYWGQGTLVTVSS
VL: DIVMSQSPDSLAVSLGERATITCKSSQSLLYSGNQKNYLAWYQQKPGQPPTLLIYWASTRDSGVPDRLTGSGSGTDFTLTISSLQAEDVAVYYCQQYYAYPYTFGQGTKLEIKR
The molecule B4 gave an IC50 in assay [6] of 9.45 µg/mL. In the assay with human LAG-3 (His tag) [1], this molecule yielded a Kd of 546 pM, a koff of 5.17e-05 s⁻¹ and a kon of 94700 M⁻¹ s⁻¹.

B5: humanized antibody AB12T5 (antibody, human IgG4, kappa, V domains shown)
VH: B4 VH with D1Q, T25S, M49I, I68V, T71S, R72V, E76K, L79F, L117S
VL: B4 VL with S5T, T51K, L68F, T69S, Q106G
In the assay with human LAG-3 (His tag) [1], B5 displayed a Kd of 365 pM, a koff of 2.28e-05 s⁻¹ and a kon of 92400 M⁻¹ s⁻¹.

B6: humanized antibody AB12T6 (antibody, human IgG4, kappa, V domains shown)
VH: B4 VH with T17S, T25S, D59Y, S60Y, I68V, T71S, R72V, E76K, L79F
VL: B4 VL with T51K, L68F, T69S, Q106G, I112T
For the molecule B6, the affinity with human LAG-3 (His tag) [1], expressed as Kd, was 378 pM.

B7: humanized antibody AB12T4 (antibody, human IgG4 S228P, kappa, V domains shown)
VH: B4 VH with H41F, S80F, V93T
VL: B4 VL with A19I, I21M, P49S, L84V
notes: also called FITC-AB12T4
B7 registered an IC50 in assay [6] of 6.7 µg/mL. In the assay with human LAG-3 (His tag) [1], this molecule returned a Kd of 258 pM, a koff of 3.09e-05 s⁻¹ and an association rate constant (kon) of 120000 M⁻¹ s⁻¹. Besides, the EC50 in assay [7] came to 12800 pM. Further, in the assay with human LAG-3 (His tag) [3], the IC50 is 12700 pM and the Maximum inhibition % was found to be 89.3%. For the same molecule, in assay [5], the EC50 came out at 803000 pM.

B8: humanized antibody AB12T7 (antibody, human IgG4, kappa, V domains shown)
VH: QVQLQESGPGLVKPSQTLSLTCTVSGYSITSFYSWSWIRQHPGKGLEWIGYIQYSGDTYYNPSLKSRVTISVDTSKNQFSLKLSSVTAADTAVYYCARSPYDSDPYYVMDYWGQGTLVTVSS
VL: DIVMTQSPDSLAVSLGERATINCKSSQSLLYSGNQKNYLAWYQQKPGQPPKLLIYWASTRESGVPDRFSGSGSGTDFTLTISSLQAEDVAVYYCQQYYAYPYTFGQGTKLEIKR
In the assay with human LAG-3 (His tag) [1], B8 displayed a Kd of 359 pM, a koff of 2.36e-05 s⁻¹ and an association rate constant (kon) of 65800 M⁻¹ s⁻¹.
